# Measurements: patent US20260207767A1 (ANAVEON, published 2026)
# Where two headings read alike, the source gives them in different places.
# Experiments:
# [1] = target: T1, recombinant hPD-1 (construct not stated) (human, UniProt Q15116 25-167, limits assumed); experiment: SPR, Ab captured, PD-1 analyte
# T1 construct: also called huPD-1; Human PD1
# Protocol: (§1) Recombinant humanized antibody variants of ZJN296 were expressed as human IgG1 in HEK293 cells. For SPR analysis (Biacore 8K, GE Healthcare) anti-human Fc IgG (Bethyl, A80-304P) was immobilized on CM5 chips (Cytiva) using 1×HBS-EP+ running buffer. […] 10 mM glycine (pH 1.5) as regeneration buffer was injected to flow cells following every dissociation phase.
# [2] = target: T2, recombinant cynoPD-1 (construct not stated) (cynomolgus monkey, UniProt B0LAJ3 25-170); experiment: SPR, Ab captured, PD-1 analyte
# T2 construct: not shown: probably His as elsewhere
# T2 sequence (B0LAJ3 entry or part of it limits assumed): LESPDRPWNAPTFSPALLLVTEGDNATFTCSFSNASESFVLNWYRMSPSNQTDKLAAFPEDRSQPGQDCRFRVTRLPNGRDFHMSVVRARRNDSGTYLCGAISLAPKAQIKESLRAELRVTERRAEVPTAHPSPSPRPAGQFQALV
# Protocol: as §1
# [3] = target: T3, cynoPD-1 His (AcroBiosystems PD1-C5223) (cynomolgus monkey, UniProt B0LAJ3 25-170); experiment: SPR, Ab captured, PD-1 analyte
# T3 construct: also called cPD-1; cynomolgus PD-1 His-tagged
# T3 sequence (B0LAJ3 entry or part of it limits assumed): as above
# Protocol: (§2) Anti-human Fc IgG (Jackson) was immobilized on amine reactive CM5 chips (GE Healthcare) using 1×HBS-EP+ running buffer (GE Healthcare). The test antibodies were captured at flow rate 10 μl/min with 30 s contact time. […] Regeneration was carried out with 10 mM Glycine-HCl, pH 1.5 at flow rate 10 μL/min. This protocol is to be used, unless stated otherwise, in determination of Kd wherever used to define the KD of antibodies specified herein, with adaptions where necessary with regard to the nature of the interaction partners.
# [4] = target: T4, hPD-1 Avi-Tag Biotin (AcroBiosystems PD1-H82E4) (human, UniProt Q15116 25-167, biotin on Avi-Tag); experiment: SPR, Ab captured, PD-1 analyte
# T4 construct: bought; also called human PD-1
# T4 sequence (Q15116 25-167 limits assumed): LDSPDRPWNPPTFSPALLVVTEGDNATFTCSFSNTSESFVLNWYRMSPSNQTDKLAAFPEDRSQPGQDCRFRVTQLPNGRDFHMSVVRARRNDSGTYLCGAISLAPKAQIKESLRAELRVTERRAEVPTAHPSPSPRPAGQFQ
# Protocol: as §2
# [5] = target: T5, human PD-1 expressed on cells (human, UniProt Q15116 25-288); experiment: flow cytometry, CHO-S hPD-1
# T5 construct: whole, on cells; cell line named under assay; also called CHO-S hPD-1; Raji PD-1
# T5 sequence (Q15116 25-288): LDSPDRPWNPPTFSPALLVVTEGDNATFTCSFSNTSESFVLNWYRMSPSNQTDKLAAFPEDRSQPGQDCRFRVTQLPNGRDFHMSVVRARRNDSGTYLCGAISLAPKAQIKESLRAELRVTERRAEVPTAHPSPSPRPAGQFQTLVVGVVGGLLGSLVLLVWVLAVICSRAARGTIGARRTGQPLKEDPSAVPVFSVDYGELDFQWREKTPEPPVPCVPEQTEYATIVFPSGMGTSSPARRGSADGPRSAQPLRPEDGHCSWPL
# Protocol: CHO-S hPD-1 cells were incubated with a 5-fold serial dilution of the indicated humanized antibodies. Antibody binding was detected with goat anti-human IgG-PE. MFI were plotted over the antibody concentration to obtain EC50 values.
# hPD-1 His-tagged = target: T6, hPD-1 His-tagged (human, UniProt Q15116 25-167); experiment: SPR, Ab captured, PD-1 analyte
# T6 construct: also called recombinant hPD-1 (AcroBio)
# T6 sequence (Q15116 25-167 limits assumed): as the sequence (Q15116 25-167 limits assumed) above
# Protocol: (§3) 10 mM glycine (pH 1.5) as regeneration buffer was injected to flow cells following every dissociation phase.
# [6] = target: T3, cynoPD-1 His (AcroBiosystems PD1-C5223); experiment: SPR, Ab captured, PD-1 analyte; remark: listed apart in the source
# Protocol: as §3
# T1 sequence (Q15116 25-167 limits assumed): as above
Kd [1] [nM],koff [1] [s⁻¹],kon [1] [M⁻¹ s⁻¹],Kd [2] [nM],koff [2] [s⁻¹],kon [2] [M⁻¹ s⁻¹],Kd [3] [nM],koff [3] [s⁻¹],kon [3] [M⁻¹ s⁻¹],Kd [4] [nM],koff [4] [s⁻¹],kon [4] [M⁻¹ s⁻¹],EC50 [5] [nM],Top MFI [5] [MFI],Kd (hPD-1 His-tagged) [nM],koff (hPD-1 His-tagged) [s⁻¹],kon (hPD-1 His-tagged) [M⁻¹ s⁻¹],Kd [6] [nM],koff [6] [s⁻¹],kon [6] [M⁻¹ s⁻¹],Binder
8.7,0.000495,56900,104,0.00641,61500,,,,,,,,,,,,,,,"ZJN296-0 (antibody, human IgG1, V domains shown, human IgG1; also called humanized ZJN296-0; GH + GL) VH: QVQLVQSGAEVKKPGASVKVSCKASGYDFTSHWMHWVRQAPGQGLEWMGAIDPSDSYTNYNQKFKGRVTMTTDTSTSTAYMELRSLRSDDTAVYYCARSPFDYWGQGTTVTVSS VL: DIQMTQSPSSLSASVGDRVTITCKASQDVSTAVAWYQQKPGKAPKLLIYSASYRYTGVPSRFSGSGSGTDFTFTISSLQPEDIATYYCQQHYSFPFTFGQGTKLEIK"
3.22,0.000201,62600,43.9,0.00279,63600,,,,,,,,,,,,,,,"ZJN296-6 (antibody, V domains shown, human IgG1; also called GH + T071V + T073R, GL) VH: QVQLVQSGAEVKKPGASVKVSCKASGYDFTSHWMHWVRQAPGQGLEWMGAIDPSDSYTNYNQKFKGRVTMTVDRSTSTAYMELRSLRSDDTAVYYCARSPFDYWGQGTTVTVSS VL: DIQMTQSPSSLSASVGDRVTITCKASQDVSTAVAWYQQKPGKAPKLLIYSASYRYTGVPSRFSGSGSGTDFTFTISSLQPEDIATYYCQQHYSFPFTFGQGTKLEIK"
5.72,0.000324,56500,72.7,0.00433,59600,,,,,,,,,,,,,,,"ZJN296-2 (antibody, V domains shown, human IgG1; also called GH + T071V, GL) VH: QVQLVQSGAEVKKPGASVKVSCKASGYDFTSHWMHWVRQAPGQGLEWMGAIDPSDSYTNYNQKFKGRVTMTVDTSTSTAYMELRSLRSDDTAVYYCARSPFDYWGQGTTVTVSS VL: DIQMTQSPSSLSASVGDRVTITCKASQDVSTAVAWYQQKPGKAPKLLIYSASYRYTGVPSRFSGSGSGTDFTFTISSLQPEDIATYYCQQHYSFPFTFGQGTKLEIK"
6.57,0.000369,56100,107,0.00511,47600,,,,,,,,,,,,,,,"ZJN296-3 (antibody, V domains shown, human IgG1; also called GH + T073R, GL) VH: QVQLVQSGAEVKKPGASVKVSCKASGYDFTSHWMHWVRQAPGQGLEWMGAIDPSDSYTNYNQKFKGRVTMTTDRSTSTAYMELRSLRSDDTAVYYCARSPFDYWGQGTTVTVSS VL: DIQMTQSPSSLSASVGDRVTITCKASQDVSTAVAWYQQKPGKAPKLLIYSASYRYTGVPSRFSGSGSGTDFTFTISSLQPEDIATYYCQQHYSFPFTFGQGTKLEIK"
,,,,,,57.3,0.00336,58600,15.9,0.00145,91400,4.51,46200,,,,,,,"z5-XVT458 (antibody, human IgG1, kappa, V domains shown, hIgG1; numbering as for z1; also called GH + V067A + T073K) VH: QVQLVQSGAEVKKPGASVKVSCKASGYTFTNFYIHWVRQAPGQGLEWMGSIYPNYGDTAYNQKFKDRATMTTDKSTSTAYMELRSLRSDDTAVYYCARGYSYAMDYWGQGTTVTVSS VL: DIQMTQSPSSVSASVGDRVTITCSASQGISGDLNWYQQKPGKAPKLLIYHTSSLHSGVPSRFSGSGSGTDFTLTISSLQPEDFATYYCQYYSKDLLTFGGGTKLEIKR"
,,,,,,54.4,0.00321,58900,14.3,0.00136,95700,3.88,46000,,,,,,,"z7-XVT458 (antibody, human IgG1, kappa, V domains shown, hIgG1; numbering as for z1; also called GH + V067A + T071V + T073K) VH: QVQLVQSGAEVKKPGASVKVSCKASGYTFTNFYIHWVRQAPGQGLEWMGSIYPNYGDTAYNQKFKDRATMTVDKSTSTAYMELRSLRSDDTAVYYCARGYSYAMDYWGQGTTVTVSS VL: DIQMTQSPSSVSASVGDRVTITCSASQGISGDLNWYQQKPGKAPKLLIYHTSSLHSGVPSRFSGSGSGTDFTLTISSLQPEDFATYYCQYYSKDLLTFGGGTKLEIKR"
,,,,,,57.7,0.00331,57400,16.2,0.00142,87400,5.47,46200,,,,,,,"z3-XVT458 (antibody, human IgG1, kappa, V domains shown, hIgG1; numbering as for z1; also called GH + T073K) VH: QVQLVQSGAEVKKPGASVKVSCKASGYTFTNFYIHWVRQAPGQGLEWMGSIYPNYGDTAYNQKFKDRVTMTTDKSTSTAYMELRSLRSDDTAVYYCARGYSYAMDYWGQGTTVTVSS VL: DIQMTQSPSSVSASVGDRVTITCSASQGISGDLNWYQQKPGKAPKLLIYHTSSLHSGVPSRFSGSGSGTDFTLTISSLQPEDFATYYCQYYSKDLLTFGGGTKLEIKR"
,,,,,,53.8,0.00314,58400,14.5,0.00133,92000,3.93,46800,,,,,,,"z6-XVT458 (antibody, human IgG1, kappa, V domains shown, hIgG1; numbering as for z1; also called GH + T071V + T073K) VH: QVQLVQSGAEVKKPGASVKVSCKASGYTFTNFYIHWVRQAPGQGLEWMGSIYPNYGDTAYNQKFKDRVTMTVDKSTSTAYMELRSLRSDDTAVYYCARGYSYAMDYWGQGTTVTVSS VL: DIQMTQSPSSVSASVGDRVTITCSASQGISGDLNWYQQKPGKAPKLLIYHTSSLHSGVPSRFSGSGSGTDFTLTISSLQPEDFATYYCQYYSKDLLTFGGGTKLEIKR"
,,,,,,56.7,0.00358,63200,16.1,0.00147,91100,5.74,45200,,,,,,,"z0-XVT458 (antibody, human IgG1, kappa, V domains shown, hIgG1; also called GH + uVL) VH: QVQLVQSGAEVKKPGASVKVSCKASGYTFTNFYIHWVRQAPGQGLEWMGSIYPNYGDTAYNQKFKDRVTMTTDTSTSTAYMELRSLRSDDTAVYYCARGYSYAMDYWGQGTTVTVSS VL: DIQMTQSPSSVSASVGDRVTITCSASQGISGDLNWYQQKPGKAPKLLIYHTSSLHSGVPSRFSGSGSGTDFTLTISSLQPEDFATYYCQYYSKDLLTFGGGTKLEIKR"
,,,,,,57.3,0.00359,62700,15.9,0.00146,92300,5.85,45200,,,,,,,"z1-XVT458 (antibody, human IgG1, kappa, V domains shown, hIgG1; also called GH + V067A) VH: QVQLVQSGAEVKKPGASVKVSCKASGYTFTNFYIHWVRQAPGQGLEWMGSIYPNYGDTAYNQKFKDRATMTTDTSTSTAYMELRSLRSDDTAVYYCARGYSYAMDYWGQGTTVTVSS VL: DIQMTQSPSSVSASVGDRVTITCSASQGISGDLNWYQQKPGKAPKLLIYHTSSLHSGVPSRFSGSGSGTDFTLTISSLQPEDFATYYCQYYSKDLLTFGGGTKLEIKR"
,,,,,,51,0.00323,63300,13.3,0.00131,98800,4.54,46700,,,,,,,"z4-XVT458 (antibody, human IgG1, kappa, V domains shown, hIgG1; numbering as for z1; also called GH + V067A + T071V) VH: QVQLVQSGAEVKKPGASVKVSCKASGYTFTNFYIHWVRQAPGQGLEWMGSIYPNYGDTAYNQKFKDRATMTVDTSTSTAYMELRSLRSDDTAVYYCARGYSYAMDYWGQGTTVTVSS VL: DIQMTQSPSSVSASVGDRVTITCSASQGISGDLNWYQQKPGKAPKLLIYHTSSLHSGVPSRFSGSGSGTDFTLTISSLQPEDFATYYCQYYSKDLLTFGGGTKLEIKR"
,,,,,,,,,,,,,,0.5,2.9e-05,57000,3,0.00016,52000,"21A08Ap1 (antibody, V domains shown, IgG with lambda light chain; also called 21A08p1; 21A8Ap1) VH: EVQLLESGGGLVQPGGSLRLSCAASGFTFSINAMTWVRQAPGKGLEWVSTISGSGFSTYYADSLKGRFTISRDNSKNTLYLQMNSLRAEDTAVYYCAKEVYGDYWGQGTLVTVSS VL: RSVLTQPPSASGTPGQRVSISCSGASSNIGSQSVFWYQQLPGTAPKLLIYSNNQRPSGVPDRFSGSKSGTSASLAISGLRSEDEADYYCAAWDDSLSIWVFGGGTKLTVL"
,,,,,,,,,,,,,,0.58,3.5e-05,60000,4.67,0.00025,55000,"21A08Ap3 (antibody, V domains shown, IgG) VH: EVQLLESGGGLVQPGGSLRLSCAASGFTFSINAMTWVRQAPGKGLEWVSTISGSGFSTYYADSLKGRFTISRDNSKNTLYLQMNSLRAEDTAVYYCAKEVYGDYWGQGTLVTVSS VL: not shown"
,,,,,,,,,,,,,,0.66,4.2e-05,64000,3.2,0.00019,59000,"21A08Ap2 (antibody, V domains shown, IgG with lambda light chain) VH: EVQLLESGGGLVQPGGSLRLSCAASGFTFSINAMTWVRQAPGKGLEWVSTISGSGFSTYYADSLKGRFTISRDNSKNTLYLQMNSLRAEDTAVYYCAKEVYGDYWGQGTLVTVSS VL: RSVLTQPPSASGTPGQRVSISCSGASSNIGSSSVFWYQQLPGTAPKLLIYSNNQRPSGVPDRFSGSKSGTSASLAISGLRSEDEADYYCAAWDDSLSIWVFGGGTKLTVL"
